{"source": "paper PMC11609597", "about": "“Characterization of two bacterial tyrosinases from the halophilic bacterium Hahella sp. CCB MM4 relevant for phenolic compounds oxidation in wetlands” (FEBS Open Bio, 2024)", "key": {"cleaved-HcTyr1": {"target": "T1, cleaved-HcTyr1 (Hahella sp. CCB-MM4, UniProt A0A261GRE4)", "T1 construct": "gene BTA51_09820; TYR domain after self-cleavage of the C-terminal LID domain during storage (over 2 months, 4 °C); used without further purification; expressed in E. coli BL21(DE3) with C-terminal His tag; Cu(II) added 2:1", "assay": "MBTH o-quinone trapping, absorbance at […] nm, Michaelis-Menten fit", "type": "biochemical", "conditions": "50 mM potassium phosphate pH 7.0, 25 °C, 5 mM MBTH, 2% N,N'-dimethylformamide, Cu(II) 2:1; LID self-cleaved form; diphenolase"}, "purified protein [1]": {"substrate": "N[C@@H](Cc1ccc(O)c(O)c1)C(=O)O", "assay": "purified protein", "type": "biochemical, Hahella sp. CCB-MM4", "conditions": "5 mM MBTH, 2% N,N'-dimethylformamide"}, "purified protein [2]": {"substrate": "N[C@@H](Cc1ccc(O)cc1)C(=O)O", "assay": "purified protein", "type": "biochemical, Hahella sp. CCB-MM4", "conditions": "5 mM MBTH, 2% N,N'-dimethylformamide"}, "[3]": {"conditions": "50 mM potassium phosphate pH 7.0, 25 °C, Cu(II) 2:1, latent form, diphenolase"}, "[4]": {"conditions": "50 mM potassium phosphate pH 7.0, 25 °C, Cu(II) 2:1, latent form, monophenolase"}, "[5]": {"conditions": "50 mM sodium citrate pH 5.5, 25 °C, Cu(II) 2:1, diphenolase"}, "[6]": {"conditions": "50 mM sodium citrate pH 5.5, 25 °C, Cu(II) 2:1, monophenolase"}}, "data": [{"molecule": "N[C@@H](Cc1ccc(O)c(O)c1)C(=O)O", "note": "[L-DOPA]", "values": [{"measurement": "Km", "setting": "cleaved-HcTyr1", "result": "347 ± 7", "unit": "µM"}]}, {"molecule": "HcTyr1 (latent-HcTyr1) (Hahella sp. CCB-MM4) (protein, full length 466 aa with LID domain (latent), C-terminal His tag (pET22b), E. coli BL21(DE3), about 52 kDa, monomer; Cu(II) added 2:1) MKTRQNVYELKDDTLSWYSRAVEEMKSRDINDPTSWWYQGAIHGYATYPSALTYWHDATGYPPSQQTVNSGFWNRCQHGTWYFLPWHRMYLFYFEEIVAKAIRDMGGPADWTLPYWNYCEAYNTSASPSNQQQALQIPPEFGSSQGPNADFASLWIKNRRNYVLNKNNVNPWPAMNEAEFTNSGGDISFGGGVTGFAHSGGQTGQLESLPHNVVHTDINGAMGNPDTAALDPIFWLHHANIDRLWQVWLAQAGRSNPVVNAWKDFRFKFHDANGQPVEIAVKDVETTQLLGYVYTPAFPLSSTTPARRSVPAMDVVGATSASFSVGDHMAPLDLTMVPQPARGARLLAARGGDEKRTILRISNVKGKGATSPIDLFITNRDNEEGNEENFVGCIGLFGLENASTPSVESDGSGLNFAIDISDTINKLRQRDDWDEDNIRVQLIPQSKQDSDVEINVGRVSLHSEID", "values": [{"measurement": "Km", "setting": "purified protein [1]; [3]", "result": "0.370 ± 0.005", "unit": "mM"}, {"measurement": "kcat", "setting": "purified protein [1]; [3]", "result": "1.00 ± 0.0", "unit": "s⁻¹"}, {"measurement": "Km", "setting": "purified protein [2]; [4]", "result": "0.187 ± 0.035", "unit": "mM"}, {"measurement": "kcat", "setting": "purified protein [2]; [4]", "result": "0.71 ± 0.03", "unit": "s⁻¹"}]}, {"molecule": "HcTyr2 (Hahella sp. CCB-MM4) (protein, full length 550 aa with LID domain attached, C-terminal His tag (pET22b), E. coli BL21(DE3), about 61 kDa; Cu(II) added 2:1) MGDSSELNVRRSVRDLQAEYDRGNRKPLEDLIRAWKGIQELPPDDKRSFFILGGYHGEPFDYRNAVDALPPDDIYTYWGGWCNHGNVLFPTWHRIYILKLEEALQSIVPGVTLPFWDETSEETVKKGIPDVLTREYFELDGENIKNPLYSYTLPLSLSDNVPGDNKAYEKPAGYETVRYPLSGLVGTPEARAATAKHNAKYPNPIENTQLLNKNIIAWLHGSGKDEEGPTTTDPNPKGRGVKWMYEKCLSAPNYTVFSNTTSAGQWNLDHPAKSVVALEQPHNDVHLAVGGFDIPGQGESGQVADANGDMGENNTAALDPIFFFHHCNVDRMFWLWQKQNGFINKLEVITGYYGTNSSDSQGPTPGIPPGTPLDLNTPLNPFIKDEFGNPFTSMDCINIEEQLGYTYGPGSLDEVPKPEPITGGSTKKLTVRGINRGLFDGSFVIRAYASVPDAQGQLTEYYLGDHAVLSRRNVVKCANCLTHLEVIAHFPLDTLSADLVDKAEYWITIQHRGHSKRMKVDKDTGQSEKALLAQRAELPEKLKYSISVTD", "values": [{"measurement": "Km", "setting": "purified protein [1]; [5]", "result": "0.196 ± 0.006", "unit": "mM"}, {"measurement": "kcat", "setting": "purified protein [1]; [5]", "result": "9.94 ± 0.0", "unit": "s⁻¹"}, {"measurement": "Km", "setting": "purified protein [2]; [6]", "result": "0.160 ± 0.005", "unit": "mM"}, {"measurement": "kcat", "setting": "purified protein [2]; [6]", "result": 6.12, "unit": "s⁻¹"}]}]}
